Results as given in paper PMC8962251 (2022).

Biological target: SARS-CoV (2002) S1S2-His trimer (SARS-CoV (2002))
Assay: SPR

**Q.** With HDFWWEYDKKNDTWTRRRR (designed binder) [CVRBDL-3_3] as the binder, how does the Kd read?
**A.** Its Kd is roughly 41 mM.
